Legend:
EBV B95-8 isolate = test: Virus (EBV) dissemination assay in K562-CR2-HLA-E cells; format: cell-based, Epstein-Barr virus; details: for viral spread (BZLF1+ K562-CR2-HLA-E cells); effect of peptide on NKG2A+ NK or NKG2A+ CD8+ T cell mediated prevention of the viral spread: 300 μM LMP-1 peptide, 2-14 days of co-culture
Method: For the virus dissemination assays, the marmoset B-lymphoblastoid cell line B95-8 was cultured in RPM1 1640 medium supplemented with 20 mM glutamine, 50 µg/ml gentamicin, 0.2 µg/ml amphotericin B and 10% FCS (Thermo-Scientific). Cells were then cultured in the presence of […] (Biomol) for two weeks. EBV was harvested from the supernatant and enriched by ultracentrifugation (30000 U/min, 90 min, 10° C.). The virus stocks were stored at −80° C. in RPMI 1640 medium+10% FCS+10% DMSO (all: Thermo-Scientific). The multiplicity of infection (MOI) of the viral stocks was determined on K562-CR2-HLA-E*0101/0101 and K562-CR2-HLA-E*0103/0103 cells by flow-cytometry.
RMA-S/HLA-E/LFA-3 cells (kindly provided by Chiara Romagnani, DRFZ, Berlin) were maintained in RPMI-1640+20 mM glutamine+10% FCS+20 μM β-mercaptoethanol+100 U/ml penicillin-streptomycin (all Thermo Fisher)+400 μg/ml hygromycin B+1 mg/ml G418 (both InvivoGen). 2×10^6 RMA-S/LFA3/HLA-E cells were incubated for 16 h at 37° C., 5% CO2, with 300 μM of respective peptides (Peptides&Elephants) in 1 ml serum-free OptiMEM (Thermo-Fisher). Cells were afterwards inactivated using 20 μg/mL Mitomycin C (Sigma Aldrich) at 37° C. for 30 minutes. Peptide pulsed RMA-S/LFA3/HLA-E cells were co-cultured with […] CFSE (Thermo-Fisher) stained CD56^+ or CD8^+ MACS-enriched cells for 7 days in RPMI+10% FCS. Proliferating (CFSE^low) NKG2A^+CD56^+ NK cells, NKG2A^+ CD8^+ T cells or […]-specific, HLA-E-restricted NKG2A^+ or NKG2A^− T cells were then sorted by FACS as described below.
Fresh K562-CR2-HLA-E*0101/0101 and K562-CR2-HLA-E*0103/0103 cells were then inactivated using 20 μg/mL Mitomycin C at 37° C. for 30 minutes and then infected with the EBV B95-8 isolate (MOI=1) for 24 h. The infected cells were then co-cultured together with the sorted NKG2A^+ CD56^+ NK cells, NKG2A^+ CD8^+ T cells or […]-specific, HLA-E-restricted NKG2A^+ or NKG2A^− T cells (E:T, 1:2). In some experiments, 300 μM of respective peptides was also added. At indicated time points, the cells were harvested and analyzed by flow-cytometry, as described below.

HLA-E [1] = test: HLA-E stabilization assay on peptide-pulsed K562-HLA-E cells; details: K562-HLA-E*0103/0103 or K562-HLA-E*0101/0101 cells, 300 μM peptide, 16 h, flow-cytometry
Method: HLA-E surface stabilization was induced as previously described^32. In brief, TAP-incompetent K562-HLA-E*0101/0101 and K562-HLA-E*0103/0103 (kindly provided by Thorbald van Hall, Leiden University Medical Center) were cultured in Iscove's Modified Dulbecco's Medium (IMDM)+10% FCS (both: Thermo-Scientific). […] (positive control), BZLF1-derived [sequence] or LMP-1 peptides (Peptides&Elephants) in 1 ml Opti-MEM (Thermo-Fisher) for 16 h at 37° C. Peptide-pulsed cells were either stained for HLA-E surface expression by flow-cytometry analysis or washed with complete medium and used for in vitro stimulations.
The following conjugated mouse anti-human mAB were used for flow-cytometry: BV421-CD56 (NCAM 16.2), BV421-CD8 (RPA-T8), BV510-NKG2A (131411), APC/H7-CD107a (H4A3), APC/CD21 (all: BD), APC-CD3 (UCHT1), APC/Cy7-IFNγ (B27), APC-HLA/E (all: Biolegend), APC-Cy7-Granzyme B (Abcore), BZLF1-Alexa488 (Novusbio). Dead cells were identified using LIVE/DEAD Fixable Green Dead Cell Stain Kit (Thermo-Scientific) or 7-Aminoactinomycin D (7-AAD, Invitrogen). Flow-cytometry analysis was performed on a FACSCanto2 platform and FACSDiva Version 10.7.2 (BD).

HLA-E [2] = target: T1, HLA-E (Homo sapiens, UniProt P13747); test: HLA-E stabilization by UL40 peptides on HLA-E-expressing RMA-S cells; format: cell-based; details: for Interpretation: HLA-E binding class of UL40 variant; for Mean MFI: HLA-E expression on the cell surface of RMA-S cells incubated with UL40 peptide; for HLA-E Upregulation: HLA-E-expressing RMA-S cells incubated with UL40 peptide
T1 construct: expressed in transfected cells; host or cells: mouse lymphoma cell line RMA-S/HLA-E/LFA-3, a gift from Chiara Romagnani, DRFZ Berlin
T1 sequence (P61769 21-119): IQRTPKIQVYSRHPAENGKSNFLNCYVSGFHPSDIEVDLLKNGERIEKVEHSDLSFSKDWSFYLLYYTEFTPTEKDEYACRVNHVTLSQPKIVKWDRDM
T1 sequence (P13747 22-358): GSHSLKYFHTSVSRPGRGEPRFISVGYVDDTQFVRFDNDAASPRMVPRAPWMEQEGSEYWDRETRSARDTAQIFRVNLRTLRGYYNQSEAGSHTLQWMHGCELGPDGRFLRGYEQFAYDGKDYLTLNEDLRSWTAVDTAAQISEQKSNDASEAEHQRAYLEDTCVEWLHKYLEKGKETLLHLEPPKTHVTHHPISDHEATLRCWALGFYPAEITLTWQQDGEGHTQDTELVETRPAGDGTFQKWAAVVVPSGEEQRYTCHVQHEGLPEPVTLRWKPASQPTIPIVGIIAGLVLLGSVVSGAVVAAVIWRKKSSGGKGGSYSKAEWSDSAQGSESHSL
Description: Functionally, the expansion of NKG2C^+ NK cells in response to HCMV infections depends on a highly polymorphic HCMV UL40-encoded peptide in the respective infecting HCMV variant, which upregulates the NKG2C ligand HLA-E on the surface of HCMV-infected cells^52. […] HCMV variants were obtained from all 145 HCMV-seropositive MS patients during an episode of HCMV reactivation between EBV seroconversion and MS diagnosis, as well as from all HCMV seropositive EBNA^high (N=80) and EBNA^low (N=85) controls in any of the serum samples collected from the individuals over time. […] Therefore, we incubated HLA-E-expressing RMA-S cells with each of the 18 UL40 peptides and measured HLA-E expression on the cell surface.

HLA-E [3] = test: LMP-1 dependent HLA-E up-regulation assay in GlialCAM370-389-specific B-cells; format: cell-based, human; details: B-cells from 24 healthy blood donors transfected with LMP-1 peptide, 16 h
Method: For the HLA-E stabilization experiments, 5×10^6 viable CFSE stained PBMCs were cultured in RPMI-1640+10% FCS in the presence of 10 μg GlialCAM370-389 ([…]), 10 μg of random 20 amino acid peptides (negative control, GenScript) or without peptides (non-peptide control) and 10 ng/mL IL-2 (Peprotech) at 37° C. Every three days, fresh 10 μg GlialCAM370-389 and 10 ng/mL IL-2 were added. After 7 days of co-culture, GlialCAM370-389-specific B-cells were sorted. 1×10^5 GlialCAM370-389-specific B-cells were then individually transfected with the indicated concentrations of the LMP-1 peptides (Peptides&Elephants) using the Pierce Protein Transfection Reagent according to the manufacturer's instructions (Thermo Fisher). After 16 h, the cells were either fixed and analyzed for HLA-E expression by flow cytometry, as described below, or washed once with Opti-MEM I Reduced Serum Medium (Gibco) and subsequently used in NKG2A^+ NK cell inhibition experiments. For the NKG2A^+ NK cell inhibition experiments, sorted NKG2A^+NKG2C^−NKG2D^− NK cells from 24 healthy blood donors were cultured together with peptide-pulsed GlialCAM370-389 B-cells (E:T, 1:1) for 6 h at 37° C. After co-cultivation, the supernatant was removed, cleared by centrifugation (1000×g, 5 min), and analyzed using IFNγ ELISA according to the manufacturer's recommendations (Thermo Fisher).

NKG2C+ NK cells = test: NKG2C+ NK cell response elicited by UL40 peptides; parameters: species or system human; details: UL40 peptide variant encoded by infecting HCMV isolate

Sequence | Interpretation (HLA-E [2]) | Mean MFI (HLA-E [2]) | HLA-E Upregulation (HLA-E [2]) [%] | also measured
GGDPHLPPL | – | – | – | viral spread (BZLF1+ K562-CR2-HLA-E cells); effect of peptide on NKG2A+ NK or NKG2A+ CD8+ T cell mediated prevention of the viral spread (EBV B95-8 isolate): no inhibitory effect; HLA-E upregulation / stabilization (surface expression of HLA-E) (HLA-E [1]): neither significant HLA-E upregulation
GMAPRTLLL [HCMV UL40 peptide variant] | Low Binding (↑) | 1575 | 41.5 | –
GSDPHLPTL | – | – | – | viral spread (BZLF1+ K562-CR2-HLA-E cells); effect of peptide on NKG2A+ NK or NKG2A+ CD8+ T cell mediated prevention of the viral spread (EBV B95-8 isolate): no inhibitory effect; HLA-E upregulation / stabilization (surface expression of HLA-E) (HLA-E [1]): neither significant HLA-E upregulation
GTDPHLPTL [only rarely detected EBV LMP-1 peptide variant] | – | – | – | viral spread (BZLF1+ K562-CR2-HLA-E cells); effect of peptide on NKG2A+ NK or NKG2A+ CD8+ T cell mediated prevention of the viral spread (EBV B95-8 isolate): increased viral spread; inhibition of NKG2A+ CD8+ T cells in EBV-dissemination assay (granzyme B-expressing cells) (EBV B95-8 isolate; peptide-pulsed K562-CR2-HLA-E*0103/0103 and K562-CR2-HLA-E*0101/0101 cells, sorted NKG2A+ CD8+ T cells): caused the inhibition; inhibition of NKG2A+ NK cells in EBV-dissemination assay (granzyme B-expressing cells) (EBV B95-8 isolate; peptide-pulsed K562-CR2-HLA-E*0103/0103 and K562-CR2-HLA-E*0101/0101 cells, sorted NKG2A+ NK cells): caused the inhibition; upregulation of HLA-E on the surface of GlialCAM370-389-specific B-cells (HLA-E [3]): stable upregulation of HLA-E
VIAPRTLIL [HCMV UL40 peptide variant] | Low Binding (↑) | 1541 | 40.6 | –
VLAPRTLLL [HCMV UL40 peptide variant] | Low Binding (↑) | 2059 | 54.2 | –
VMAPRILIL [HCMV UL40 peptide variant] | Low Binding (↑) | 2056 | 54.2 | –
VMAPRILVL [HCMV UL40 peptide variant] | Low Binding (↑) | 2299 | 60.5 | –
VMAPRSLIL [HCMV UL40 peptide variant] | Low Binding (↑) | 2074 | 54.6 | –
VMAPRSLLL [HCMV UL40 peptide variant] | Low Binding (↑) | 2351 | 61.9 | –
VMAPRTLFL [HCMV UL40 peptide variant] | High Binding (↑↑) (a high-level of HLA-E stabilization, as defined by an HLA-E upregulation of >99.5%) | 3797 | 100.0 | NKG2C+ NK cell response (NKG2C+ NK cells): more potent NKG2C^+ NK cell response
VMAPRTLLL [HCMV UL40 peptide variant] | High Binding (↑↑) (a high-level of HLA-E stabilization, as defined by an HLA-E upregulation of >99.5%) | 3776 | 99.5 | NKG2C+ NK cell response (NKG2C+ NK cells): more potent NKG2C^+ NK cell response
VMAPRTLVL [HCMV UL40 peptide variant] | High Binding (↑↑) (a high-level of HLA-E stabilization, as defined by an HLA-E upregulation of >99.5%) | 3782 | – | NKG2C+ NK cell response (NKG2C+ NK cells): more potent NKG2C^+ NK cell response
VMAPWTLIL [HCMV UL40 peptide variant] | Low Binding (↑) | 1210 | 31.9 | –
VMAPWTLVL [HCMV UL40 peptide variant] | Low Binding (↑) | 1503 | 39.6 | –
VMGPRTLIL [HCMV UL40 peptide variant] | Low Binding (↑) | 1858 | 48.9 | –
VMTPRTLIL [HCMV UL40 peptide variant] | Low Binding (↑) | 2633 | 69.3 | –
VMTPRTLLL [HCMV UL40 peptide variant] | Low Binding (↑) | 2519 | 66.3 | –
VMTPRTLVL [HCMV UL40 peptide variant] | Low Binding (↑) | 2488 | 65.5 | –
VVAPRTLVL [HCMV UL40 peptide variant] | Low Binding (↑) | 1840 | 48.5 | –
